Measured values reported in article PMC4838890, “Dynamic and flexible H3K9me3 bridging via HP1β dimerization establishes a plastic state of condensed chromatin” (Nature Communications, 2016).

Experiments:
HP1β (Homo sapiens) = HP1β (Homo sapiens) (UniProt P83916); details: cited from earlier work
[1] = target: H3K9me3 oligonucleosomes (12-mer oligonucleosomal arrays) (Xenopus laevis); assay: co-sedimentation; chromatin coprecipitation with oligonucleosomes reconstituted to different saturation (0.8:1.0, 1.0:1.0, 1.0:1.2 octamers to positioning sequences); saturating protein concentrations; Coomassie bands quantified in relation to input
[2] = target: H3KC9me3 mononucleosome (Xenopus laevis); assay: ITC; 1.8 mM hHP1β injected into 60 μM H3 peptides, nucleosomes or oligonucleosomal arrays; 25°C; 10 mM triethanolamine pH 7.5, 20 mM NaCl, 0.1 mM EDTA; apparent; one set of identical sites
[3] = target: free H3K9me3 tail peptide; assay: as above
[4] = target: H3K9me3 mononucleosome (Xenopus laevis); assay: SPR; biotinylated ligands on streptavidin (SA) chips, hHP1β proteins injected; 298 K; 10 mM triethanolamine pH 7.5, 150 mM NaCl, 0.1 mM EDTA, 1 mM DTT, 0.005% Tween-20; steady-state analysis; apparent
[5] = target: H3KC9me3 mononucleosome (Xenopus laevis); assay: ITC; 1.8 mM hHP1β injected into 60 μM H3 peptides, nucleosomes or oligonucleosomal arrays; 25°C; 10 mM triethanolamine pH 7.5, 150 mM NaCl, 0.1 mM EDTA; apparent; one set of identical sites
[6] = target: H3KC9me3 oligonucleosomes (12-mer oligonucleosomal arrays) (Xenopus laevis); assay: as above
[7] = target: free H3K9me3 tail peptide; assay: as above
H3KC9me3 tail peptide [8] = assay: ITC; 1.8 mM hHP1β injected into 60 μM H3 peptides, nucleosomes or oligonucleosomal arrays; 25°C; 10 mM triethanolamine pH 7.5, 20 mM NaCl, 0.1 mM EDTA; apparent; one set of identical sites
[9] = target: H3K9me3 oligonucleosomes (12-mer oligonucleosomal arrays) (Xenopus laevis)
H3KC9me3 tail peptide [10] = assay: ITC; 1.8 mM hHP1β injected into 60 μM H3 peptides, nucleosomes or oligonucleosomal arrays; 25°C; 10 mM triethanolamine pH 7.5, 150 mM NaCl, 0.1 mM EDTA; apparent; one set of identical sites

Chain of human HP1β wild type (hHP1β WT) (P83916 whole entry): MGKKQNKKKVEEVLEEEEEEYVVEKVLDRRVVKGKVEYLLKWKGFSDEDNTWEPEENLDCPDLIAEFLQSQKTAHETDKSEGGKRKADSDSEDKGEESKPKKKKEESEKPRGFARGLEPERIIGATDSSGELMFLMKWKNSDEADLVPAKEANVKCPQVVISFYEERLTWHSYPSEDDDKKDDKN
Chain of Swi6 (P40381 whole entry): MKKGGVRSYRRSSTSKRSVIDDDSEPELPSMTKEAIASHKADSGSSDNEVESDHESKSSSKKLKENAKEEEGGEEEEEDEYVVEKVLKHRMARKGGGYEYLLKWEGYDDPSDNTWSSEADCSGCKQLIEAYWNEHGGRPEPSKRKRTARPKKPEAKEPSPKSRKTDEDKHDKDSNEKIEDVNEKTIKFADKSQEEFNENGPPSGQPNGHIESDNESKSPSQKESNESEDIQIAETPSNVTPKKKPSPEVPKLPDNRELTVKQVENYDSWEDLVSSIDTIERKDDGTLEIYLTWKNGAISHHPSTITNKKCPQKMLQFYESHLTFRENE
Chain of HP1β (P83916 whole entry): as the sequence (P83916 whole entry) above

| Substance | stoichiometry N (molecules per nucleosome) [1] | Kd [2] [µM] | stoichiometry N [2] | Kd [3] [µM] | stoichiometry N [3] | Kd [4] [µM] | Kd [5] [µM] | stoichiometry N [5] | Kd [6] [µM] | stoichiometry N [6] | stoichiometry N [7] | other results |
| --- | --- | --- | --- | --- | --- | --- | --- | --- | --- | --- | --- | --- |
| HP1β (from UniProt P83916) |  |  |  |  |  |  |  |  |  |  |  | Kd (HP1β (Homo sapiens)): < 0.001 µM |
| Swi6 (from UniProt P40381 1-328) (natural protein) | 4 |  |  |  |  |  |  |  |  |  |  |  |
| hHP1β I161A (from UniProt P83916 1-185) (natural protein) |  | 223 | 1.1 | 1.1 | 1 | 5.2 | 58 | 1.2 | 132 | 1.1 | 0.9 | Kd [7]: 3.4 µM |
| hHP1β chromo domain (CD) (domain or fragment) |  |  |  |  |  |  |  |  |  |  | 1.1 |  |
| human HP1β wild type (hHP1β WT) (from UniProt P83916 1-185) (natural protein) | 2 | 59 | 2.1 | 1.4 | 0.9 | 1 | 22 | 1.4 | 11 | 1.9 | 1 | Kd (H3KC9me3 tail peptide [8]): 11 µM; stoichiometry N (H3KC9me3 tail peptide [8]): 1; half-maximal effect in the chromatin precipitation (sedimentation) assay, 150 mM NaCl, 4°C [9]: 0.4 µM; half-maximal effect on the hydrodynamic radius of oligonucleosomes by FCS, 150 mM NaCl, 23°C [9]: 3.5 µM; Kd (H3KC9me3 tail peptide [10]): 21 µM; stoichiometry N (H3KC9me3 tail peptide [10]): 1 |
